From patent US20250320312A1 (OXITOPE PHARMA B V, published 2025)

T1: Peptide 4: Biotin-AGGGGSGGGGSGGGGSAAA-Tyr-acid (N-terminal biotin; C-terminal acid)
T1 construct: control peptide without PC
T1 peptide: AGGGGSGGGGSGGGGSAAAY

T2: Peptide 8: Biotin-AEAAAKEAAAKEAAAKEAAAKAAA-Tyr-acid (N-terminal biotin; C-terminal acid)
T2 construct: control peptide without PC
T2 peptide: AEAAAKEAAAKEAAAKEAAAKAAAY


What was measured:
Experiment in all cases: scFv ELISA
BSA = BSA (UniProt P02769)
[1] = target: Peptide 1: Biotin-…-[Tyr(PC)]-acid
[2] = target: Peptide 5: Biotin-…-[Tyr(PC)]-acid
[3] = target: T1, Peptide 4: …
Procedure: (§1) For ELISA analysis of scFv binding, 96-well polystyrene plates were coated with Peptide 1, 4, 5, 8 or 100 μL BSA (10 μg/mL) in PBS at 4° C. overnight. Plates were washed three times with PBS-Tween and blocked with 100 μL 1% BSA-TBS for 1 hour at room temperature. 96-well streptavidin coated plates were coated with 100 μL biotinylated PC-peptides (1 μg/mL) in PBS for 1 hour at room temperature.
(§2) All plates were washed three times with PBS-Tween before 40 μL aliquots of PPE were added to assay plates along with 50 μL 10% BSA, and plates were incubated for 1 hour at room temperature. After washing, […] HRP conjugated anti-V5 in 5% BSA was added, and plates were incubated at room temperature for 30 mins. Plates were washed and 100 μL TMB substrate was added. Color was left to develop at room temperature before the reaction was stopped with 100 μL 1N HCl. The amount of scFv bound to each well was quantitated from absorbance measurement at 450 nm (OD450).

[4] = target: T2, Peptide 8: …
Procedure: as §1, §2

Sequence of BSA (P02769 25-607 limits assumed): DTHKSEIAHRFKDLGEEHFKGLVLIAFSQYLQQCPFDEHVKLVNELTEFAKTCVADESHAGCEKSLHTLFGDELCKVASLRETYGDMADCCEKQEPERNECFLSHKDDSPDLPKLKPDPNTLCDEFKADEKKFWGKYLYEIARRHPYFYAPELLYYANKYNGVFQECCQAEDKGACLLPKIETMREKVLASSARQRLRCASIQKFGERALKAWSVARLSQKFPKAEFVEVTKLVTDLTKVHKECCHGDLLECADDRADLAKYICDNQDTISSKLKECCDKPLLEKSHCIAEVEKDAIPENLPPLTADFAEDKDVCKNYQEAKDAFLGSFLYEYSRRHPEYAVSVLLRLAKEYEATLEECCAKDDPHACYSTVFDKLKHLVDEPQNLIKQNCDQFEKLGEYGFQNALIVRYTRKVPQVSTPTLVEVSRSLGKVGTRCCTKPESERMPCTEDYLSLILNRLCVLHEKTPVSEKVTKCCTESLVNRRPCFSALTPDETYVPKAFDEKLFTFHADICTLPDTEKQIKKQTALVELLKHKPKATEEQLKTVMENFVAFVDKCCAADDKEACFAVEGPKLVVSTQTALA

OD450 (BSA)	OD450 [1]	OD450 [2]	OD450 [3]	OD450 [4]	Binder
0.06 OD450	0.2 OD450	0.27 OD450	0.05 OD450	0.06 OD450	PcOxP_DB02_A12 (scFv, V domains shown, scFv in periplasmic extract) VH: EVQLLESGGGLVQPGGSLRLSCAASGFTFSDDYMEWVRQAPGKGLEWVAASRNKANDYTTEYADSVKGRFTISRDNSKNTLYLQMNSLRAEDTAVYYCARDYQGSSYWYFDVWGQGTLVTVSS VL: DIQMTQSPSSLSASVGDRVTITCTASESLYSSKHKVHYLAWYQQKPGKAPKLLIYGAFNRYTGVPSRFSGSGSGTDFTLTISSLQPEDFATYYCAQFYTYPLTFGGGTKVEIK
0.1 OD450	0.35 OD450	0.62 OD450	0.05 OD450	0.05 OD450	PcOxP_DB02_C02 (scFv, V domains shown, scFv in periplasmic extract) VH: EVQLLESGGGLVQPGGSLRLSCAASGFTFSDFYMEWVRQAPGKGLEWVAASRNKANDYTVEYADSVKGRFTISRDNSKNTLYLQMNSLRAEDTAVYYCARDYYGHSYWYFDVWGQGTLVTVSS VL: DIQMTQSPSSLSASVGDRVTITCTASESLYSSKHKVHYLAWYQQKPGKAPKLLIYGASNRYIGVPSRFSGSGSGTDFTLTISSLQPEDFATYYCAQFYSYPLTFGGGTKVEIK
0.11 OD450	0.37 OD450	0.6 OD450	0.05 OD450	0.05 OD450	PcOxP_DB02_F02 (scFv, V domains shown, scFv in periplasmic extract) VH: EVQLLESGGGLVQPGGSLRLSCAASGFTFSDFYMEWVRQAPGKGLEWVAASRNKANDYTTEYADSVKGRFTISRDNSKNTLYLQMNSLRAEDTAVYYCARDYYGSSYWYFDVWGQGTLVTVSS VL: DIQMTQSPSSLSASVGDRVTITCFASESLYSSKHKVHYLAWYQQKPGKAPKLLIYGASNRGIGVPSRFSGSGSGTDFTLTISSLQPEDFATYYCAQFYSYPLTFGGGTKVEIK
0.11 OD450	0.35 OD450	0.79 OD450	0.07 OD450	0.04 OD450	PcOxP_DB02_B06 (scFv, V domains shown, scFv in periplasmic extract) VH: EVQLLESGGGLVQPGGSLRLSCAASGFTFSDNYMEWVRQAPGKGLEWVAASRNKANDYTTEYADSVKGRFTISRDNSKNTLYLQMNSLRAEDTAVYYCARDYYGSSYWYFDVWGQGTLVTVSS VL: DIQMTQSPSSLSASVGDRVTITCTASESLYSSKHKVHYLAWYQQKPGKAPKLLIYGASNRYIGVPSRFSGSGSGTDFTLTISSLQPEDFATYYCTQFYSYPLTFGGGTKVEIK
0.11 OD450	0.49 OD450	0.98 OD450	0.05 OD450	0.05 OD450	PcOxP_DB02_B02 (scFv, V domains shown, scFv in periplasmic extract) VH: EVQLLESGGGLVQPGGSLRLSCAASGFTFSDYYMEWVRQAPGKGLEWVAASRNSGNDYTTEYADSVKGRFTISRDNSKNTLYLQMNSLRAEDTAVYYCARDYYGSSYWYFDVWGQGTLVTVSS VL: DIQMTQSPSSLSASVGDRVTITCTASESLYSSKHKVHYLAWYQQKPGKAPKLLIYGASNRLIGVPSRFSGSGSGTDFTLTISSLQPEDFATYYCAQFYWYPLTFGGGTKVEIK
0.09 OD450	0.52 OD450	0.79 OD450	0.04 OD450	0.04 OD450	PcOxP_DB02_E10 (scFv, V domains shown, scFv in periplasmic extract) VH: EVQLLESGGGLVQPGGSLRLSCAASGFTFSDQYMEWVRQAPGKGLEWVAASRNKANDYQTEYADSVKGRFTISRDNSKNTLYLQMNSLRAEDTAVYYCARDYYGSSYWYFDVWGQGTLVTVSS VL: DIQMTQSPSSLSASVGDRVTITCTASESLYSGKHKVHYLAWYQQKPGKAPKLLIYGASNLQIGVPSRFSGSGSGTDFTLTISSLQPEDFATYYCAQFYYYPLTFGGGTKVEIK
0.1 OD450	2.33 OD450	1.34 OD450	0.05 OD450	0.04 OD450	PcOxP_DB02_B12 (scFv, V domains shown, scFv in periplasmic extract) VH: EVQLLESGGGLVQPGGSLRLSCAASGFTFSDYYMEWVRQAPGKGLEWVAASRNKANDYTTEYADSVKGRFTISRDNSKNTLYLQMNSLRAEDTAVYYCARDYYGSSYWYFDVWGQGTLVTVSS VL: DIQMTQSPSSLSASVGDRVTITCTASESLYSSKHKVHYLAWYQQKPGKAPKLLIYGQSNRYIGVPSRFSGSGSGTDFTLTISSLQPEDFATYYCAQFYSYPLTFGGGTKVEIK
0.11 OD450	0.16 OD450	0.44 OD450	0.05 OD450	0.04 OD450	PcOxP_DB02_D09 (scFv, V domains shown, scFv in periplasmic extract) VH: EVQLLESGGGLVQPGGSLRLSCAASGFTFSTFYMEWVRQAPGKGLEWVAASRNKANDYTTEYADSVKGRFTISRDNSKNTLYLQMNSLRAEDTAVYYCARDYYGSSYWYFDVWGQGTLVTVSS VL: DIQMTQSPSSLSASVGDRVTITCTASESLYSSKHKVHYLAWYQQKPGKAPKLLIYGASNRYGGVPSRFSGSGSGTDFTLTISSLQPEDFATYYCAQFYEYPLTFGGGTKVEIK
0.08 OD450	0.67 OD450	1.03 OD450	0.04 OD450	0.04 OD450	PcOxP_DB02_B10 (scFv, V domains shown, scFv in periplasmic extract) VH: EVQLLESGGGLVQPGGSLRLSCAASGFTESDFYMEWVRQAPGKGLEWVAASRNKANDYTTEYADSVKGRFTISRDNSKNTLYLQMNSLRAEDTAVYYCARDYYGSSYWYFDVWGQGTLVTVSS VL: DIQMTQSPSSLSASVGDRVTITCTASESLYSSKHKVHYLAWYQQKPGKAPKLLIYGASNRYIGVPSRFSGSGSGTDFTLTISSLQPEDFATYYCAQFYVYPLTFGGGTKVEIK
0.1 OD450	0.69 OD450	1.01 OD450	0.05 OD450	0.04 OD450	PcOxP_DB02_D10 (scFv, V domains shown, scFv in periplasmic extract) VH: EVQLLESGGGLVQPGGSLRLSCAASGFTFSDQYMEWVRQAPGKGLEWVAASRNKANDYTTEYADSVKGRFTISRDNSKNTLYLQMNSLRAEDTAVYYCARDYYGSSYWYFDVWGQGTLVTVSS VL: DIQMTQSPSSLSASVGDRVTITCTATESLYSSKHKVHYLAWYQQKPGKAPKLLIYGASNRYTGVPSRFSGSGSGTDFTLTISSLQPEDFATYYCAQFYSYPLTFGGGTKVEIK
0.11 OD450	0.43 OD450	0.63 OD450	0.05 OD450	0.1 OD450	PcOxP_DB02_E01 (scFv, V domains shown, scFv in periplasmic extract) VH: EVQLLESGGGLVQPGGSLRLSCAASGFTFSDQYMEWVRQAPGKGLEWVAASRNKANDYTTEYADSVKGRFTISRDNSKNTLYLQMNSLRAEDTAVYYCARDYYGSSYWYFDVWGQGTLVTVSS VL: DIQMTQSPSSLSASVGDRVTITCTASESLYSSKHKVHYLAWYQQKPGKAPKLLIYGASGRYIGVPSRFSGSGSGTDFTLTISSLQPEDFATYYCAQFYSYPLTFGGGTKVEIK
0.1 OD450	0.12 OD450	0.24 OD450	0.05 OD450	0.04 OD450	PcOxP_DB02_C11 (scFv, V domains shown, scFv in periplasmic extract) VH: EVQLLESGGGLVQPGGSLRLSCAASGFTSSDFYMEWVRQAPGKGLEWVAASRNKANDYYTEYADSVKGRFTISRDNSKNTLYLQMNSLRAEDTAVYYCARDYYGSSYWYFDVWGQGTLVTVSS VL: DIQMTQSPSSLSASVGDRVTITCTASESLYSSKHKVHYLAWYQQKPGKAPKLLIYGASNRYIGVPSRFSGSGSGTDFTLTISSLQPEDFATYYCAQFYSYPLTFGGGTKVEIK
0.1 OD450	1.03 OD450	1.47 OD450	0.06 OD450	0.05 OD450	PcOxP_DB02_C01 (scFv, V domains shown, scFv in periplasmic extract) VH: EVQLLESGGGLVQPGGSLRLSCAASGFTFSDAYMEWVRQAPGKGLEWVAASRNKANDYTTEYADSVKGRFTISRDNSKNTLYLQMNSLRAEDTAVYYCARDYYGSSYWYFDVWGQGTLVTVSS VL: DIQMTQSPSSLSASVGDRVTITCTASESLYSSKHKVHYLAWYQQKPGKAPKLLIYGASNRYIGVPSRFSGSGSGTDFTLTISSLQPEDFATYYCAQFYSYPLTFGGGTKVEIK
0.1 OD450	0.69 OD450	1.01 OD450	0.05 OD450	0.04 OD450	PcOxP_DB02_C09 (scFv, V domains shown, scFv in periplasmic extract) VH: EVQLLESGGGLVQPGGSLRLSCAASGFTFSDAYMEWVRQAPGKGLEWVAASRNKANDYTTEYADSVKGRFTISRDNSKNTLYLQMNSLRAEDTAVYYCARDYYGSSYWYFDVWGQGTLVTVSS VL: DIQMTQSPSSLSASVGDRVTITCTASESLYSSKHKVHYLAWYQQKPGKAPKLLIYGAGNRYIGVPSRFSGSGSGTDFTLTISSLQPEDFATYYCAQFYFYPLTFGGGTKVEIK
0.09 OD450	0.31 OD450	0.35 OD450	0.05 OD450	0.05 OD450	PcOxP_DB02_D01 (scFv, V domains shown, scFv in periplasmic extract) VH: EVQLLESGGGLVQPGGSLRLSCAASGFGFSDFYMEWVRQAPGKGLEWVAASRHKANDYTTEYADSVKGRFTISRDNSKNTLYLQMNSLRAEDTAVYYCARDYYGSSYWYFDVWGQGTLVTVSS VL: DIQMTQSPSSLSASVGDRVTITCTASESLYSSKHKVHYLAWYQQKPGKAPKLLIYGASNRYIGVPSRFSGSGSGTDFTLTISSLQPEDFATYYCAQFYWYPLTFGGGTKVEIK
0.11 OD450	0.54 OD450	1.03 OD450	0.05 OD450	0.05 OD450	PcOxP_DB02_C06 (scFv, V domains shown, scFv in periplasmic extract) VH: EVQLLESGGGLVQPGGSLRLSCAASGFTFSDAYMEWVRQAPGKGLEWVAASRNKANDYTTEYADSVKGRFTISRDNSKNTLYLQMNSLRAEDTAVYYCARDYYGSSYWYFDVWGQGTLVTVSS VL: DIQMTQSPSSLSASVGDRVTITCTASEWLYSSKHKVHYLAWYQQKPGKAPKLLIYGASNRNIGVPSRFSGSGSGTDFTLTISSLQPEDFATYYCAQFYYYPLTFGGGTKVEIK
